Positions of bridges follow the written chain, without caps; N, C: chain ends. Non-standard residues stand in square brackets, D forms with d. Lys(CH2CO2H)2 = N[C@@H](CCCCN(CC(=O)O)CC(=O)O)C(=O)O; Phe(3,4-(OMe)2) = COc1ccc(C[C@H](N)C(=O)O)cc1OC; Ser(ΨH,HPro) = O=C(O)[C@@H]1COCN1; Hyp = O=C(O)[C@@H]1C[C@@H](O)CN1; Pen = CC(C)(S)[C@H](N)C(=O)O; Orn = NCCC[C@H](N)C(=O)O; Thz = O=C(O)[C@@H]1CSCN1; Dab = NCC[C@H](N)C(=O)O
Key:
[1] = target: T1, human melanocortin 4 receptor (human, UniProt P32245 1-332); experiment: competition with 125-NDP-α-MSH, BHK human MC4R membranes
T1 construct: whole, on cells; cAMP assay on whole BHK cells; also called MC4R; human MC4 receptor
Outline: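 Competition binding used membranes from BHK cells stably expressing human MC4R with ¹²⁵I-NDP-α-MSH (apx. […] final), compound at 1 μM–0.001 nM. Incubation was 2 h at 25 °C in HEPES pH 7.0 buffer with CaCl₂, MgSO₄, EGTA, Tween 20 and 0.1% HSA or ovalbumin. Filter-bound radioactivity was fitted by non-linear regression.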

[2] = target: T1, human melanocortin 4 receptor; experiment: cell-based or functional assay
[3] = target: human melanocortin 1 receptor (human, UniProt Q01726 1-317); experiment: cell-based or functional assay
Chain of human melanocortin 1 receptor (Q01726 whole entry): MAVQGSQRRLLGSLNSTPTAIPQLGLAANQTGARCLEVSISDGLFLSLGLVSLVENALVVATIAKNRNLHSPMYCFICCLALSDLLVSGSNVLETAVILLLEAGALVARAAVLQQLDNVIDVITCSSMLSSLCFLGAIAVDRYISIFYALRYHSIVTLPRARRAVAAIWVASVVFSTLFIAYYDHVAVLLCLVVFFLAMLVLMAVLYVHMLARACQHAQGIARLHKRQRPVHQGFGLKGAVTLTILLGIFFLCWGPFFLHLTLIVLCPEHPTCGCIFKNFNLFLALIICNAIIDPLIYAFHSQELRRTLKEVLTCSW

T1 sequence (P32245 whole entry): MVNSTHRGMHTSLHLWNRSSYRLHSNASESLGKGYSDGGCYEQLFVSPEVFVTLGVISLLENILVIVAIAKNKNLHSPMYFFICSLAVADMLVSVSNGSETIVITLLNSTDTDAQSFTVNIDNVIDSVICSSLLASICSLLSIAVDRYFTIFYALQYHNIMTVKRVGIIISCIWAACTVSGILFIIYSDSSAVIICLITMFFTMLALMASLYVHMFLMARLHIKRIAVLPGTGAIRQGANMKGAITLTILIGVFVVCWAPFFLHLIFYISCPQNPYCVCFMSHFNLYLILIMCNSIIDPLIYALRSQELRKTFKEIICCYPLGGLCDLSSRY

Row | Binder | Ki [1] | MC4R cAMP EC50 [2] | MC1R cAMP EC50 [3]
1 | cyclo(CAH[dF]KWCAH[dF]KW) (disulfide 1-7; SMILES C[C@@H]1NC(=O)[C@@H]2CSSC[C@H](NC(=O)[C@H](Cc3c[nH]c4ccccc34)NC(=O)[C@H](CCCCN)NC(=O)[C@@H](Cc3ccccc3)NC(=O)[C@H](Cc3c[nH]cn3)NC1=O)C(=O)N[C@@H](C)C(=O)N[C@@H](Cc1c[nH]cn1)C(=O)N[C@H](Cc1ccccc1)C(=O)N[C@@H](CCCCN)C(=O)N[C@@H](Cc1c[nH]c3ccccc13)C(=O)N2, also called c[c[Cys-Ala-His-D-Phe-Lys-Trp-Cys]-Ala-His-D-Phe-Lys-Trp]) [Chem. 15] | 0.12 nM | 0.09 nM | 5.43 nM
2 | cyclo(CPH[dF]R[Phe(3,4-(OMe)2)]CAKKKR) (disulfide 1-7, also called c[c[Cys-Pro-His-D-Phe-Arg-3,4-DiMeO-Phe-Cys]-Ala-Lys-Lys-Lys-Arg]) [Chem. 94] | 0.25 nM | 4.38 nM | 113 nM
3 | cyclo(C[Ser(ΨH,HPro)]H[dF]HWCAKKKW) (disulfide 1-7; SMILES C[C@@H]1NC(=O)[C@@H]2CSSC[C@H](NC(=O)[C@H](Cc3c[nH]c4ccccc34)NC(=O)[C@H](CCCCN)NC(=O)[C@H](CCCCN)NC(=O)[C@H](CCCCN)NC1=O)C(=O)N1COC[C@H]1C(=O)N[C@@H](Cc1c[nH]cn1)C(=O)N[C@H](Cc1ccccc1)C(=O)N[C@@H](Cc1c[nH]cn1)C(=O)N[C@@H](Cc1c[nH]c3ccccc13)C(=O)N2, also called c[c[Cys-OXA-His-D-Phe-His-Trp-Cys]-Ala-Lys-Lys-Lys-Trp]) [Chem. 103] | 0.06 nM | 0.05 nM | > 70 nM
4 | CXHFRWCXHFRW (Aib 2, 8; D-Phe 4, 10; disulphide Cys1-Cys7; head-to-tail amide Cys1-Trp12, also called c[c[Cys-Aib-His-D-Phe-Arg-Trp-Cys]-Aib-His-D-Phe-Arg-Trp]) [Chem. 9] | 0.06 nM | 0.02 nM | 4.02 nM
5 | cyclo(CAH[dF][Dab]WCAH[dF][Dab]W) (disulfide 1-7; SMILES C[C@@H]1NC(=O)[C@@H]2CSSC[C@H](NC(=O)[C@H](Cc3c[nH]c4ccccc34)NC(=O)[C@H](CCN)NC(=O)[C@@H](Cc3ccccc3)NC(=O)[C@H](Cc3c[nH]cn3)NC1=O)C(=O)N[C@@H](C)C(=O)N[C@@H](Cc1c[nH]cn1)C(=O)N[C@H](Cc1ccccc1)C(=O)N[C@@H](CCN)C(=O)N[C@@H](Cc1c[nH]c3ccccc13)C(=O)N2, also called c[c[Cys-Ala-His-D-Phe-Dab-Trp-Cys]-Ala-His-D-Phe-Dab-Trp]) [Chem. 17] | 0.83 nM | 0.36 nM | 104 nM
6 | cyclo(C[Thz]H[dF]HWC[Thz]H[dF]HW) (disulfide 1-7; SMILES O=C1N[C@H]2CSSC[C@H](NC(=O)[C@H](Cc3c[nH]c4ccccc34)NC(=O)[C@H](Cc3c[nH]cn3)NC(=O)[C@@H](Cc3ccccc3)NC(=O)[C@H](Cc3c[nH]cn3)NC(=O)[C@@H]3CSCN3C2=O)C(=O)N2CSC[C@H]2C(=O)N[C@@H](Cc2c[nH]cn2)C(=O)N[C@H](Cc2ccccc2)C(=O)N[C@@H](Cc2c[nH]cn2)C(=O)N[C@H]1Cc1c[nH]c2ccccc12, also called c[c[Cys-THAZ-His-D-Phe-His-Trp-Cys]-THAZ-His-D-Phe-His-Trp]) [Chem. 91] | 0.51 nM | 0.71 nM | > 10 nM
7 | cyclo(C[Thz]H[dF]HWCAA[Lys(CH2CO2H)2]AW) (disulfide 1-7; SMILES C[C@@H]1NC(=O)[C@H](C)NC(=O)[C@@H]2CSSC[C@H](NC(=O)[C@H](Cc3c[nH]c4ccccc34)NC(=O)[C@H](C)NC(=O)[C@H](CCCCN(CC(=O)O)CC(=O)O)NC1=O)C(=O)N1CSC[C@H]1C(=O)N[C@@H](Cc1c[nH]cn1)C(=O)N[C@H](Cc1ccccc1)C(=O)N[C@@H](Cc1c[nH]cn1)C(=O)N[C@@H](Cc1c[nH]c3ccccc13)C(=O)N2, also called c[c[Cys-THAZ-His-D-Phe-His-Trp-Cys]-Ala-Ala-Lys(CH2COOH)2-Ala-Trp]) [Chem. 104] | 8.87 nM | 0.6 nM | > 100 nM
8 | cyclo(CGH[dF]RWCGH[dF]RW) (disulfide 1-7; SMILES N=C(N)NCCC[C@@H]1NC(=O)[C@@H](Cc2ccccc2)NC(=O)[C@H](Cc2c[nH]cn2)NC(=O)CNC(=O)[C@@H]2CSSC[C@H](NC(=O)[C@H](Cc3c[nH]c4ccccc34)NC1=O)C(=O)NCC(=O)N[C@@H](Cc1c[nH]cn1)C(=O)N[C@H](Cc1ccccc1)C(=O)N[C@@H](CCCNC(=N)N)C(=O)N[C@@H](Cc1c[nH]c3ccccc13)C(=O)N2, also called c[c[Cys-Gly-His-D-Phe-Arg-Trp-Cys]-Gly-His-D-Phe-Arg-Trp]) [Chem. 2] | 0.07 nM | 0.01 nM | 1.54 nM
9 | cyclo(CA[Hyp][dF]RWCA[Hyp][dF]RW) (disulfide 1-7; SMILES C[C@@H]1NC(=O)[C@@H]2CSSC[C@H](NC(=O)[C@H](Cc3c[nH]c4ccccc34)NC(=O)[C@H](CCCNC(=N)N)NC(=O)[C@@H](Cc3ccccc3)NC(=O)[C@@H]3C[C@@H](O)CN3C1=O)C(=O)N[C@@H](C)C(=O)N1C[C@H](O)C[C@H]1C(=O)N[C@H](Cc1ccccc1)C(=O)N[C@@H](CCCNC(=N)N)C(=O)N[C@@H](Cc1c[nH]c3ccccc13)C(=O)N2, also called c[c[Cys-Ala-Hyp-D-Phe-Arg-Trp-Cys]-Ala-Hyp-D-Phe-Arg-Trp]) [Chem. 14] | 30.2 nM | 3.55 nM | > 10 nM
10 | cyclo(C[Thz]H[dF]HWCAEEAW) (disulfide 1-7; SMILES C[C@@H]1NC(=O)[C@H](CCC(=O)O)NC(=O)[C@H](CCC(=O)O)NC(=O)[C@H](C)NC(=O)[C@@H]2CSSC[C@H](NC(=O)[C@H](Cc3c[nH]c4ccccc34)NC1=O)C(=O)N1CSC[C@H]1C(=O)N[C@@H](Cc1c[nH]cn1)C(=O)N[C@H](Cc1ccccc1)C(=O)N[C@@H](Cc1c[nH]cn1)C(=O)N[C@@H](Cc1c[nH]c3ccccc13)C(=O)N2, also called c[c[Cys-THAZ-His-D-Phe-His-Trp-Cys]-Ala-Glu-Glu-Ala-Trp]) [Chem. 105] | 43 nM | 6.62 nM | > 100 nM
11 | cyclo(C[Thz]H[dF]HWCADEAW) (disulfide 1-7; SMILES C[C@@H]1NC(=O)[C@H](CCC(=O)O)NC(=O)[C@H](CC(=O)O)NC(=O)[C@H](C)NC(=O)[C@@H]2CSSC[C@H](NC(=O)[C@H](Cc3c[nH]c4ccccc34)NC1=O)C(=O)N1CSC[C@H]1C(=O)N[C@@H](Cc1c[nH]cn1)C(=O)N[C@H](Cc1ccccc1)C(=O)N[C@@H](Cc1c[nH]cn1)C(=O)N[C@@H](Cc1c[nH]c3ccccc13)C(=O)N2, also called c[c[Cys-THAZ-His-D-Phe-His-Trp-Cys]-Ala-Asp-Glu-Ala-Trp]) [Chem. 107] | 39.1 nM | 10.6 nM | > 100 nM
12 | cyclo(C[Thz]H[dF]HWCADDAW) (disulfide 1-7; SMILES C[C@@H]1NC(=O)[C@H](CC(=O)O)NC(=O)[C@H](CC(=O)O)NC(=O)[C@H](C)NC(=O)[C@@H]2CSSC[C@H](NC(=O)[C@H](Cc3c[nH]c4ccccc34)NC1=O)C(=O)N1CSC[C@H]1C(=O)N[C@@H](Cc1c[nH]cn1)C(=O)N[C@H](Cc1ccccc1)C(=O)N[C@@H](Cc1c[nH]cn1)C(=O)N[C@@H](Cc1c[nH]c3ccccc13)C(=O)N2, also called c[c[Cys-THAZ-His-D-Phe-His-Trp-Cys]-Ala-Asp-Asp-Ala-Trp]) [Chem. 106] | 42.8 nM | 10.6 nM | > 100 nM
13 | cyclo(C[Thz]H[dF]HWCAEDAW) (disulfide 1-7; SMILES C[C@@H]1NC(=O)[C@H](CC(=O)O)NC(=O)[C@H](CCC(=O)O)NC(=O)[C@H](C)NC(=O)[C@@H]2CSSC[C@H](NC(=O)[C@H](Cc3c[nH]c4ccccc34)NC1=O)C(=O)N1CSC[C@H]1C(=O)N[C@@H](Cc1c[nH]cn1)C(=O)N[C@H](Cc1ccccc1)C(=O)N[C@@H](Cc1c[nH]cn1)C(=O)N[C@@H](Cc1c[nH]c3ccccc13)C(=O)N2, also called c[c[Cys-THAZ-His-D-Phe-His-Trp-Cys]-Ala-Glu-Asp-Ala-Trp]) [Chem. 108] | 23.3 nM | 2.52 nM | > 100 nM
14 | cyclo([Pen]PH[dF]HWCAKKKR) (disulfide 1-7; SMILES C[C@@H]1NC(=O)[C@@H]2CSSC(C)(C)[C@H](NC(=O)[C@H](CCCNC(=N)N)NC(=O)[C@H](CCCCN)NC(=O)[C@H](CCCCN)NC(=O)[C@H](CCCCN)NC1=O)C(=O)N1CCC[C@H]1C(=O)N[C@@H](Cc1c[nH]cn1)C(=O)N[C@H](Cc1ccccc1)C(=O)N[C@@H](Cc1c[nH]cn1)C(=O)N[C@@H](Cc1c[nH]c3ccccc13)C(=O)N2, also called c[c[Pen-Pro-His-D-Phe-His-Trp-Cys]-Ala-Lys-Lys-Lys-Arg]) [Chem. 92] | 0.04 nM | 0.13 nM | 47.1 nM
15 | cyclo(CPH[dF]HW[Pen]AKKKR) (disulfide 1-7; SMILES C[C@@H]1NC(=O)[C@H]2NC(=O)[C@H](Cc3c[nH]c4ccccc34)NC(=O)[C@H](Cc3c[nH]cn3)NC(=O)[C@@H](Cc3ccccc3)NC(=O)[C@H](Cc3c[nH]cn3)NC(=O)[C@@H]3CCCN3C(=O)[C@H](CSSC2(C)C)NC(=O)[C@H](CCCNC(=N)N)NC(=O)[C@H](CCCCN)NC(=O)[C@H](CCCCN)NC(=O)[C@H](CCCCN)NC1=O, also called c[c[Cys-Pro-His-D-Phe-His-Trp-Pen]-Ala-Lys-Lys-Lys-Arg]) [Chem. 93] | 0.03 nM | 0.04 nM | 18.2 nM
16 | cyclo(C[dP]H[dF]HWCAKKKW) (disulfide 1-7, also called c[c[Cys-D-Pro-His-D-Phe-His-Trp-Cys]-Ala-Lys-Lys-Lys-Trp]) [Chem. 98] | 0.6 nM | 2.7 nM | > 55 nM
17 | cyclo(CAH[dF][Orn]WCAH[dF][Orn]W) (disulfide 1-7; SMILES C[C@@H]1NC(=O)[C@@H]2CSSC[C@H](NC(=O)[C@H](Cc3c[nH]c4ccccc34)NC(=O)[C@H](CCCN)NC(=O)[C@@H](Cc3ccccc3)NC(=O)[C@H](Cc3c[nH]cn3)NC1=O)C(=O)N[C@@H](C)C(=O)N[C@@H](Cc1c[nH]cn1)C(=O)N[C@H](Cc1ccccc1)C(=O)N[C@@H](CCCN)C(=O)N[C@@H](Cc1c[nH]c3ccccc13)C(=O)N2, also called c[c[Cys-Ala-His-D-Phe-Orn-Trp-Cys]-Ala-His-D-Phe-Orn-Trp]) [Chem. 16] | 0.34 nM | 0.21 nM | > 1 nM

Reference: patent US20200223889A1 (Novo Nordisk, published 2020)
